These results are taken from patent US20110150896A1 (published 2011).

The experiment deals with full-length PcrV protein (recombinant, 1-294) (in the biotin-labeled form: PEO-maleimide activated biotin on the inserted cysteine). As to the kind of experiment: SPR. For orientation: SPR reads the build-up and loss of mass on a sensor chip optically.

In general, Kd refers to the free concentration of one partner at which half of the binding sites on the other are occupied at equilibrium, for simple one-to-one binding.

B1: 2A4 (antibody, V domains shown)
VH: DVQLQESGPGLVKPSQSLSLTCTVTGYSITSDYAWNWIRQFPGNKLEWMGYITYNGDTSYNPSLKSRISIARDTSKNQFFLQLNSVTTEDTATYSCAGSRNYYGAWFAYWGQGTLVTVSA
VL: DIVMTQSHKFMSTSIGDRVSINYKASQYVGTTVAWYQQKSGHSPKLLIYRASTRHTGVPDRFTGSGSGTDFTLNISNVQSEDLADYFCQQYCSSPLTFGAGTYLEVKR
Regarding B1, the Kd stood at 0.35 nM.

B2: 1F3 (antibody, V domains shown)
VH: QVQLQQPGAELVKPGASVKLSCKASGYSFTSYWMHWVKQRPGQGLEWIGEINPSNGRTNYNEKFNTKATLTVDTSSSTAYMQLSSLTSEDSAVYYCVLYGNYVVYYTMDYWGQGTSVTVSS
VL: QIVLTQSPTIMSASLGEEITLTCSASTSVSYMEWYQQKSGTSPKILIYTTSKLASGVPSRFSGSGSGTFYSLTISSVEAEDAADYYCHQWRNYPFTFGSGTKLEIKR
Turning to B2, the dissociation constant (Kd) amounted to 0.37 nM.
